Each block holds one binder with its values, some of them ahead of it.
What was measured:
O7-bA = biological target: T1, O7-bA; experiment: two-hybrid library CCNG1;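 further: natural log of median RNA to DNA barcode read ratio; higher means stronger binding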
T1 chain: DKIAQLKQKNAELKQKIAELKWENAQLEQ

O9-bA = biological target: T2, O9-bA; experiment: two-hybrid library CCNG1;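 further: natural log of median RNA to DNA barcode read ratio; higher means stronger binding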
T2 chain: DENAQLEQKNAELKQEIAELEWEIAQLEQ

O8-bA = biological target: T3, O8-bA; experiment: two-hybrid library CCNG1;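 further: natural log of median RNA to DNA barcode read ratio; higher means stronger binding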
T3 chain: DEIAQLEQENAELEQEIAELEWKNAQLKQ

O3-bA = biological target: T4, O3-bA; experiment: two-hybrid library CCNG1;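 further: natural log of median RNA to DNA barcode read ratio; higher means stronger binding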
T4 chain: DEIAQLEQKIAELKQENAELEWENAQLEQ

O6-bA = biological target: T5, O6-bA; experiment: two-hybrid library CCNG1
T5 chain: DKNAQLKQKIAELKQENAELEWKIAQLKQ

O5-bA = biological target: T6, O5-bA; experiment: two-hybrid library CCNG1
T6 chain: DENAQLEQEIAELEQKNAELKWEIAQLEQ

O4-bA = biological target: T7, O4-bA; experiment: two-hybrid library CCNG1
T7 chain: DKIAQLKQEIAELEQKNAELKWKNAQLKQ

4H1867-AA = biological target: T8, 4H1867-AA; experiment: two-hybrid library CCmax
T8 chain: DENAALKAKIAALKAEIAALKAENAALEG

4H678-AA = biological target: T9, 4H678-AA; experiment: two-hybrid library CCmax; conditions: mean of both orientations
T9 chain: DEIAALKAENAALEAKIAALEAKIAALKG

4H2277-AA = biological target: T10, 4H2277-AA; experiment: two-hybrid library CCmax; conditions: mean of both orientations
T10 chain: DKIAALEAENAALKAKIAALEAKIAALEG

4H2837-AA = biological target: T11, 4H2837-AA; experiment: two-hybrid library CCmax; conditions: mean of both orientations
T11 chain: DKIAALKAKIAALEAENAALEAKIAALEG

4H2575-AA = biological target: T12, 4H2575-AA; experiment: two-hybrid library CCmax; conditions: mean of both orientations
T12 chain: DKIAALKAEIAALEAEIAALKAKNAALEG

4H3427-AA = biological target: T13, 4H3427-AA; experiment: two-hybrid library CCmax; conditions: mean of both orientations
T13 chain: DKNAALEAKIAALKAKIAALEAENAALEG

4H335-AA = biological target: T14, 4H335-AA; experiment: two-hybrid library CCmax; conditions: mean of both orientations
T14 chain: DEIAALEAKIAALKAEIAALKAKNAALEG

4H2729-AA = biological target: T15, 4H2729-AA; experiment: two-hybrid library CCmax; conditions: mean of both orientations
T15 chain: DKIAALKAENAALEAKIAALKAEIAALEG

4H3606-AA = biological target: T16, 4H3606-AA; experiment: two-hybrid library CCmax; conditions: mean of both orientations
T16 chain: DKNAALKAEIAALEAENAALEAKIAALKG

4H3921-AA = biological target: T17, 4H3921-AA; experiment: two-hybrid library CCmax; conditions: mean of both orientations
T17 chain: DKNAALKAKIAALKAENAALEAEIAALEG

4H2466-AA = biological target: T18, 4H2466-AA; experiment: two-hybrid library CCmax; conditions: mean of both orientations
T18 chain: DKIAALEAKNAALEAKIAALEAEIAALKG

4H717-AA = biological target: T19, 4H717-AA; experiment: two-hybrid library CCmax; conditions: mean of both orientations
T19 chain: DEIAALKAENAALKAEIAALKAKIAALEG

4H2393-AA = biological target: T20, 4H2393-AA; experiment: two-hybrid library CCmax; conditions: mean of both orientations
T20 chain: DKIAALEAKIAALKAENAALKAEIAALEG

4H2617-AA = biological target: T21, 4H2617-AA; experiment: two-hybrid library CCmax; conditions: mean of both orientations
T21 chain: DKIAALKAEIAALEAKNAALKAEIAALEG

4H2754-AA = biological target: T22, 4H2754-AA; experiment: two-hybrid library CCmax; conditions: mean of both orientations
T22 chain: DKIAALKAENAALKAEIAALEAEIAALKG

4H794-AA = biological target: T23, 4H794-AA; experiment: two-hybrid library CCmax; conditions: mean of both orientations
T23 chain: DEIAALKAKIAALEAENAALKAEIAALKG

4H566-AA = biological target: T24, 4H566-AA; experiment: two-hybrid library CCmax; conditions: mean of both orientations
T24 chain: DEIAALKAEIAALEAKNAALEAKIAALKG

4H3112-AA = biological target: T25, 4H3112-AA; experiment: two-hybrid library CCmax; conditions: mean of both orientations
T25 chain: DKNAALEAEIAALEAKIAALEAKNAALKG

4H2165-AA = biological target: T26, 4H2165-AA; experiment: two-hybrid library CCmax; conditions: mean of both orientations
T26 chain: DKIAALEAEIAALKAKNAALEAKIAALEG

4H3343-AA = biological target: T27, 4H3343-AA; experiment: two-hybrid library CCmax; conditions: mean of both orientations
T27 chain: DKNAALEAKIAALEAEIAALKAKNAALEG

4H2883-AA = biological target: T28, 4H2883-AA; experiment: two-hybrid library CCmax; conditions: mean of both orientations
T28 chain: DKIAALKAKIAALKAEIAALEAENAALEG

4H2354-AA = biological target: T29, 4H2354-AA; experiment: two-hybrid library CCmax; conditions: mean of both orientations
T29 chain: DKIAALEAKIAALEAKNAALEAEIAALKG

4H3655-AA = biological target: T30, 4H3655-AA; experiment: two-hybrid library CCmax; conditions: mean of both orientations
T30 chain: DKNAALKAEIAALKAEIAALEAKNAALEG

4H2944-AA = biological target: T31, 4H2944-AA; experiment: two-hybrid library CCmax; conditions: mean of both orientations
T31 chain: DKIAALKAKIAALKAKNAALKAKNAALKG

4H2151-AA = biological target: T32, 4H2151-AA; experiment: two-hybrid library CCmax; conditions: mean of both orientations
T32 chain: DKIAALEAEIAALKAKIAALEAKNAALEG

4H993-AA = biological target: T33, 4H993-AA; experiment: two-hybrid library CCmax; conditions: mean of both orientations
T33 chain: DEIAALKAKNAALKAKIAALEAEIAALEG

4H454-AA = biological target: T34, 4H454-AA; experiment: two-hybrid library CCmax; conditions: mean of both orientations
T34 chain: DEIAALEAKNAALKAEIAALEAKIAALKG

4H3627-AA = biological target: T35, 4H3627-AA; experiment: two-hybrid library CCmax; conditions: mean of both orientations
T35 chain: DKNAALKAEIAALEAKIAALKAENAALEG

4H3844-AA = biological target: T36, 4H3844-AA; experiment: two-hybrid library CCmax; conditions: mean of both orientations
T36 chain: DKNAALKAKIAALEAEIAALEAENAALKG

4H429-AA = biological target: T37, 4H429-AA; experiment: two-hybrid library CCmax; conditions: mean of both orientations
T37 chain: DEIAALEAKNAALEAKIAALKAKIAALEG

4H342-AA = biological target: T38, 4H342-AA; experiment: two-hybrid library CCmax; conditions: mean of both orientations
T38 chain: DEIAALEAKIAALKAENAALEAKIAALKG

4H48-AA = biological target: T39, 4H48-AA; experiment: two-hybrid library CCmax; conditions: mean of both orientations
T39 chain: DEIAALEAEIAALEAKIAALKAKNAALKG

4H780-AA = biological target: T40, 4H780-AA; experiment: two-hybrid library CCmax; conditions: mean of both orientations
T40 chain: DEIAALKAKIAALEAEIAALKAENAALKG

4H906-AA = biological target: T41, 4H906-AA; experiment: two-hybrid library CCmax; conditions: mean of both orientations
T41 chain: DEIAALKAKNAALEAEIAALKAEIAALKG

4H317-AA = biological target: T42, 4H317-AA; experiment: two-hybrid library CCmax; conditions: mean of both orientations
T42 chain: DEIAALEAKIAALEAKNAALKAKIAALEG

4H234-AA = biological target: T43, 4H234-AA; experiment: two-hybrid library CCmax; conditions: mean of both orientations
T43 chain: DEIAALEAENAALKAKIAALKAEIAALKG

4H2642-AA = biological target: T44, 4H2642-AA; experiment: two-hybrid library CCmax
T44 chain: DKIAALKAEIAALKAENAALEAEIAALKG

4H881-AA = biological target: T45, 4H881-AA; experiment: two-hybrid library CCmax; conditions: mean of both orientations
T45 chain: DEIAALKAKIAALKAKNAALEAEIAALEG

4H2190-AA = biological target: T46, 4H2190-AA; experiment: two-hybrid library CCmax; conditions: mean of both orientations
T46 chain: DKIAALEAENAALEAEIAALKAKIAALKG

4H2078-AA = biological target: T47, 4H2078-AA; experiment: two-hybrid library CCmax; conditions: mean of both orientations
T47 chain: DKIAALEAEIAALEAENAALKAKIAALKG

4H2505-AA = biological target: T48, 4H2505-AA; experiment: two-hybrid library CCmax; conditions: mean of both orientations
T48 chain: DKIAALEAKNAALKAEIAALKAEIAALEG

4H2949-AA = biological target: T49, 4H2949-AA; experiment: two-hybrid library CCmax; conditions: mean of both orientations
T49 chain: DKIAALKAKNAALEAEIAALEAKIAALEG

4H605-AA = biological target: T50, 4H605-AA; experiment: two-hybrid library CCmax; conditions: mean of both orientations
T50 chain: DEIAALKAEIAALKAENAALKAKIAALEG

P8bHq = biological target: T51, P8bHq; experiment: two-hybrid library CCNG1
T51 chain: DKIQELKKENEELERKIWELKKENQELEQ

P9bHq = biological target: T52, P9bHq; experiment: two-hybrid library CCNG1
T52 chain: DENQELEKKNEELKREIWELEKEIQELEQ

- interaction score (O7-bA): -0.831
- interaction score (O9-bA): -0.712
- interaction score (O8-bA): -1.12
- interaction score (O3-bA): -0.685
- interaction score (O6-bA): -0.618
- interaction score (O5-bA): -0.75
- interaction score (O4-bA): 2.34
B1: O3-bA (peptide)
chain: DEIAQLEQKIAELKQENAELEWENAQLEQ

- interaction score (4H1867-AA): 0.169
- interaction score (4H678-AA): -1.03
- interaction score (4H2277-AA): -1.23
- interaction score (4H2837-AA): -1.19
- interaction score (4H2575-AA): 1.63
- interaction score (4H3427-AA): -1.26
- interaction score (4H335-AA): -0.988
- interaction score (4H2729-AA): -1.46
- interaction score (4H3606-AA): -1.11
- interaction score (4H3921-AA): -1.88
- interaction score (4H2466-AA): -1.6
- interaction score (4H717-AA): -1.28
- interaction score (4H2393-AA): -1.58
- interaction score (4H2617-AA): -1.4
- interaction score (4H2754-AA): 1.11
- interaction score (4H794-AA): -1.4
- interaction score (4H566-AA): -1.59
- interaction score (4H3112-AA): 0.579
- interaction score (4H2165-AA): -1.77
- interaction score (4H3343-AA): 0.12
- interaction score (4H2883-AA): -0.898
- interaction score (4H2354-AA): -1.35
- interaction score (4H3655-AA): -0.0304
- interaction score (4H2944-AA): -0.512
- interaction score (4H2151-AA): -1.27
- interaction score (4H993-AA): -1.05
- interaction score (4H454-AA): -0.172
- interaction score (4H3627-AA): 0.353
- interaction score (4H3844-AA): 1.01
- interaction score (4H429-AA): -1.51
- interaction score (4H342-AA): -0.881
- interaction score (4H48-AA): 1.5
- interaction score (4H780-AA): -0.525
- interaction score (4H906-AA): -1.71
- interaction score (4H317-AA): -1.01
- interaction score (4H234-AA): -0.943
- interaction score (4H2642-AA): -2.13
- interaction score (4H881-AA): -1.8
- interaction score (4H2190-AA): -0.428
- interaction score (4H2078-AA): -0.776
- interaction score (4H2505-AA): -1.62
- interaction score (4H2949-AA): -1.06
- interaction score (4H605-AA): -1.5
B2: 4H1867-AA (peptide)
chain: DENAALKAKIAALKAEIAALKAENAALEG

- interaction score (P8bHq): -0.229
- interaction score (P9bHq): -1.36
B3: P8bHq (peptide)
chain: DKIQELKKENEELERKIWELKKENQELEQ

Reference: publication PMC10397247
